Source: patent publication US20250026837A1 (CANCURE, published 2025)
One block for each binder: values may come before it.

Columns and labels:
[1] = target: T1, MICB (antigen in solution in the BLI assay) (UniProt Q29980 24-297, limits assumed); test: BLI, Octet Red96; antibody captured on biosensor, MICB dilution series in solution; 1:1 model, global fit; Ab-K (humanized), FIG. 2B
T1 construct: also called antigen (MICB)
T1 sequence (looked up): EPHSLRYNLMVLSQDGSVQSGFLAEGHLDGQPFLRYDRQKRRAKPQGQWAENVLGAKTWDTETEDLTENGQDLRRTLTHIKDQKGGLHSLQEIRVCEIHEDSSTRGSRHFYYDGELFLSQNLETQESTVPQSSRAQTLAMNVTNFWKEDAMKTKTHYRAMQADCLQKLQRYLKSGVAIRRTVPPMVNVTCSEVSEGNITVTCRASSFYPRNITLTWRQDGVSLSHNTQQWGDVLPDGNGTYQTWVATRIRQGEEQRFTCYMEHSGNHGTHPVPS
Experimental: (§1) Bio-layer interferometry (BLI) was performed using Octet Red96 (ForteBio) generally as described by Kamat and Rafique, Analytical Biochemistry 536: 16-31 (2017). Antibody samples, Ab-K and Ab-J (chimeric B10G5), were captured on kinetic grade biosensors. The loaded biosensors were then dipped into a dilution series of samples containing antigen (MICB) serially diluted in PBS buffer with 0.1% BSA, 0.02% Tween-20, pH 7.2. […] Kinetic analysis was performed using a 1:1 binding model and global fitting with mass transport limitation using the Scrubber software.

[2] = target: T1, MICB (antigen in solution in the BLI …); test: BLI, Octet Red96; antibody captured on biosensor, MICB dilution series in solution; 1:1 model, global fit; Ab-J (chimeric B10G5), FIG. 2A
Experimental: as §1

Kd [1]: 7.2 nM
B1: antibody K (Ab-K; humanized HC2 / humanized LC3, human IgG1) (antibody, V domains shown)
VH: EVQLQESGPGLVKPSQTLSLTCTVSGYSITSDYAWNWIRQPPGKGLEWIGYISYSGSTNYNPSLKSRVTISRDTSKNQFSLKLSSVTAADTAVYYCARGGTYFDYWGQGTLVTVSS
VL: DVVMTQSPSTLSASVGDRVTITCRASAHINNWLAWYQQKPGKAPKLLISDATSLESGVPSRFSGSGSGKEYTLTISSLQPDDFATYYCQHYWSTPWTFGQGTKVEIKR
notes: also called K (HC2/LC3)

Kd [2]: 12.1 nM
B2: antibody J (Ab-J; chimeric B10G5, parental HC / parental LC with human IgG1 Fc region) (antibody, V domains shown)
VH: EVQLEESGPGLVKPSQSLSLTCTVTGYSITSDYAWNWIRQFPGNKLEWMGYISYSGSTNYNPSLKSRISITRDTSKNQFFLQLNSVITEDTATYYCARGGTYFDYWGQGTTLTVSS
VL: DIVLTQTTSYLSVSLGGRVTIACKASAHINNWLAWYQQKPGNAPRLLISDATSLETGVPSRFSGSGSGKDYTLSITSLQTEDVATYYCQHYWSTPWTFGGGTKLEIK
notes: also called chimeric antibody B10G5
